Paper PMC7949051, “Comparison of angiopoietin-like protein 3 and 4 reveals structural and mechanistic similarities” (The Journal of Biological Chemistry, 2021)

T1: Bovine lipoprotein lipase (bovine, UniProt P11151 29-478)
T1 sequence (looked up): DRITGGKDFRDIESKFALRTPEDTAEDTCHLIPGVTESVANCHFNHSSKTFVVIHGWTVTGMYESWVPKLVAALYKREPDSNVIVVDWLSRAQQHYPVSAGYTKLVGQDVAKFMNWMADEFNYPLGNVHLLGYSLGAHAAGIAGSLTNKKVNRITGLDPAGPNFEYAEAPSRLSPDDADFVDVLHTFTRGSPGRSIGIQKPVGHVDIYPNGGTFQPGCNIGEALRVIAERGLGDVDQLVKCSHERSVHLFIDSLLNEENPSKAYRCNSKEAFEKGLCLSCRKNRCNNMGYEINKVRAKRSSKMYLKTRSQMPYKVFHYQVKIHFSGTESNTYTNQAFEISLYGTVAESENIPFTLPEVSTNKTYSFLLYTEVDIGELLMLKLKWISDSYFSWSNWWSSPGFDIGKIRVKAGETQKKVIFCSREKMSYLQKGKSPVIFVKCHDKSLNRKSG


Assays:
[1] = molecular target: the molecule itself; assay: SEC-MALS; 24-ml S-200 column, 20 mM Tris-HCl pH 8, 150 mM NaCl, 5% glycerol, 0.5 ml/min; separately concentrated SEC peaks reinjected
[2] = molecular target: T1, Bovine lipoprotein lipase; assay: cell-based or functional assay
[3] = molecular target: T1, Bovine lipoprotein lipase; assay: enzyme inhibition kinetics (global noncompetitive fit of Michaelis-Menten curves); 10 nM bovine LPL pre-incubated with ANGPTL for 10 min at 22 °C, human VLDL varied, NEFA enzyme-coupled Amplex UltraRed read-out at 37 °C, initial rates; three biological replicates; settings: both partners purified
[4] = molecular target: the molecule itself; assay: SEC; HEK-293-produced N-terminal ANGPTL3; elution compared with E. coli-produced ANGPTL3

IC50 of inhibition of LPL activity (10 nM LPL, 200 μg/ml VLDL triglycerides, NEFA/Amplex UltraRed assay) [2] [nM] | Ki [3] [nM] | Binder | stoichiometry N [1] | stoichiometry N [4]
14.4 | 13.7 | N-terminal domain of human ANGPTL3 (S17-R224), hexamer (domain or fragment, UniProt Q9Y5C1 17-224, looked up, N-terminal (coiled-coil) domain of human ANGPTL3, residues S17 to R224; purified protein with tag 26.8 kDa; No TEV cleavage step is described; Same construct as m2; also called ANGPTL3 peak 1; ANGPTL3 hexamer; source: E. coli Bl21 (DE3) RIPL, purified (Ni-NTA, MonoQ anion exchange, SEC; peak 1 pooled); not shown: His6 with TEV cleavage site, N-terminal, kept) SRIDQDNSSFDSLSPEPKSRFAMLDDVKILANGLLQLGHGLKDFVHKTKGQINDIFQKLNIFDQSFYDLSLQTSEIKEEEKELRRTTYKLQVKNEEVKNMSLELNSKLESLLEEKILLQQKVKYLEEQLTNLIQNQPETPEHPEVTSLKTFVEKQDNSIKDLLQTVEDQYKQLNQQHSQIKEIENQLRRTSIQEPTEISLSSKPRAPR | 6 | 
 |  | N-terminal ANGPTL3 (1 to 224) produced in HEK-293 cells (domain or fragment, human, UniProt Q9Y5C1 17-224, looked up, N-linked glycans (sites not given), signal peptide in the construct; human ANGPTL3 residues 1 to 224, collected from the expression medium; also called ANGPTL3 produced in mammalian cells) SRIDQDNSSFDSLSPEPKSRFAMLDDVKILANGLLQLGHGLKDFVHKTKGQINDIFQKLNIFDQSFYDLSLQTSEIKEEEKELRRTTYKLQVKNEEVKNMSLELNSKLESLLEEKILLQQKVKYLEEQLTNLIQNQPETPEHPEVTSLKTFVEKQDNSIKDLLQTVEDQYKQLNQQHSQIKEIENQLRRTSIQEPTEISLSSKPRAPR |  | 3
5.8 | 7.5 | N-terminal domain of human ANGPTL3 (S17-R224), trimer (domain or fragment, UniProt Q9Y5C1 17-224, looked up, N-terminal (coiled-coil) domain of human ANGPTL3, residues S17 to R224; purified protein with tag 26.8 kDa; Same construct as m1; also called ANGPTL3 peak 2; ANGPTL3 trimer; source: E. coli Bl21 (DE3) RIPL, purified (Ni-NTA, MonoQ anion exchange, SEC; peak 2 pooled)) SRIDQDNSSFDSLSPEPKSRFAMLDDVKILANGLLQLGHGLKDFVHKTKGQINDIFQKLNIFDQSFYDLSLQTSEIKEEEKELRRTTYKLQVKNEEVKNMSLELNSKLESLLEEKILLQQKVKYLEEQLTNLIQNQPETPEHPEVTSLKTFVEKQDNSIKDLLQTVEDQYKQLNQQHSQIKEIENQLRRTSIQEPTEISLSSKPRAPR | 3 | 
4.8 | 3.6 | N-terminal domain of human ANGPTL4 (domain or fragment, UniProt Q9BY76 26-163, looked up, N-terminal (coiled-coil) domain of human ANGPTL4; monomer 15.4 kDa; also called N-terminal ANGPTL4; ANGPTL4 trimer) GPVQSKSPRFASWDEMNVLAHGLLQLGQGLREHAERTRSQLSALERRLSACGSACQGTEGSTDLPLAPESRVDPEVLHSLQTQLKAQNSRIQQLFHKVAQQQRHLEKQHLRIQHLQSQFGLLDHKHLDHEVAKPARRK | 3 | 
